Consider 3 molecules from publication PMC5454954, “BDNF Binds Its Pro-Peptide with High Affinity and the Common Val66Met Polymorphism Attenuates the Interaction” (International Journal of Molecular Sciences, 2017).

What is called Kd is the free concentration of one partner at which half of the binding sites on the other are occupied at equilibrium, for simple one-to-one binding. What is called koff is the rate constant with which the complex falls apart. In general, kon refers to the second-order rate constant of association.

The target of experiment [1] is BDNF pro-peptide, Met66 (Val66Met polymorphism; Met-pro-peptide) V66M (UniProt P23560). As to the kind of experiment: Surface plasmon resonance (BIAcore 2000). The conditions noted are these: pH 7.4; 20 °C; 0.15 M NaCl; HBS-EP: 0.01 M HEPES (pH 7.4). For Figure 2c the same buffer was adjusted to pH 6.5 or 7.0 with HCl.
For experiment [2], the target named is BDNF pro-peptide, Val66 (wild type; Val-pro-peptide) (UniProt P23560). As to the kind of experiment: Surface plasmon resonance (BIAcore 2000). The conditions noted are these: pH 7.4; 20 °C; 0.15 M NaCl; HBS-EP: 0.01 M HEPES (pH 7.4). For Figure 2c the same buffer was adjusted to pH 6.5 or 7.0 with HCl. Background: Surface plasmon resonance follows binding to a sensor surface in real time, without labels.

Experiment [3] addresses T1, recombinant wild-type BDNF pro-peptide (Val at position 66) (human, UniProt P23560 19-128).
T1 construct: BDNF pro-peptide, residues 19-128 of human precursor BDNF; Vector pET-19b; also called Val-BDNF pro-peptide; Val-pro-peptide; source: E. coli BL21 (DE3) pLysS, purified by liquid chromatography
T1 sequence (looked up): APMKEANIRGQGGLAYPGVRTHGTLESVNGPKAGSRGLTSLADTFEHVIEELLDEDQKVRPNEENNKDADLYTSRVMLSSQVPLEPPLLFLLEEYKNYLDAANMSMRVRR
As to the kind of experiment: SPR; BIAcore 2000; BDNF pro-peptide (Val or Met) amine-coupled to a CM5 chip at about 2000 RU; neurotrophins and other proteins flowed over; 20 °C, 20 µL/min; HBS-EP (0.01 M HEPES pH 7.4, 0.15 M NaCl, 3 mM EDTA, 0.005% Surfactant P20). Particulars: both partners purified.

The target of experiment [4] is T2, recombinant BDNF pro-peptide with the Met substitution at position 66 (Val66Met) (human, UniProt P23560 19-128, Val66Met).
T2 construct: BDNF pro-peptide, residues 19-128 of human precursor BDNF, with the common polymorphism Val66Met; Vector pET-19b; also called Met-BDNF pro-peptide; Met-pro-peptide; source: E. coli BL21 (DE3) pLysS, purified by liquid chromatography
T2 sequence (looked up): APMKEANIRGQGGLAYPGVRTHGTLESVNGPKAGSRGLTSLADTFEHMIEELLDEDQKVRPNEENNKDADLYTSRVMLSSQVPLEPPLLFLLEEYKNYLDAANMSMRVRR
The description is as above. The conditions noted are these: both partners purified.

Experiment [5] addresses T3, recombinant wild-type BDNF pro-peptide (Val at position 66) (human, UniProt P23560 19-128).
T3 chain: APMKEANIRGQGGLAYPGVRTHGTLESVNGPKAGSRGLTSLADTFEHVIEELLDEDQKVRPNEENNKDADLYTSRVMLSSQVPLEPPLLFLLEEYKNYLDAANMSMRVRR
As to the kind of experiment: SPR.

Regarding “Brain-derived neurotrophic factor (mature BDNF)”, the ka in experiment [1] is 36300 M⁻¹ s⁻¹; in experiment [2] it was 378000 M⁻¹ s⁻¹. For the same molecule, the kd in experiment [1] turned out to be 0.000444 s⁻¹; in experiment [2] it was 0.0159 s⁻¹.

B1: brain-derived neurotrophic factor (BDNF), recombinant human (ligand)
chain: HSDPARRGELSVCDSISEWVTAADKKTAVDMSGGTVTVLEKVPVSKGQLKQYFYETKCNPMGYTKEGCRGIDKRHWNSQCRTTQSYVRALTMDSKKRIGWRFIRIDTSCVCTLTIKRGR
modifications: mature BDNF; non-covalent homodimer, three intrachain disulfides per chain; a recombinant N-terminal Met is not stated
As for B1, in experiment [3], the equilibrium dissociation constant (Kd) turned out to be 42.1 nM, the koff was 0.0159 s⁻¹ and the kon came to 378000 M⁻¹ s⁻¹. For the same molecule, in experiment [4], the Kd came out at 12.2 nM, the koff is 0.000444 s⁻¹ and the kon is 36300 M⁻¹ s⁻¹.

B2: recombinant human neurotrophin-4 (NT-4) (ligand)
chain: GVSETAPASRRGELAVCDAVSGWVTDRRTAVDLRGREVEVLGEVPAAGGSPLRQYFFETRCKADNAEEGGPGAGGGGCRGVDRRHWVSECKAKQSYVRALTADAQGRVGWRWIRIDTACVCTLLSRTGRA
B2: in experiment [5], the Kd was 230 nM.
